Assay results taken from patent US20250011363A1, “OPTIMIZED SHORTENED PEPTIDE THAT BINDS TO ACETYLCHOLINE RECEPTOR, AND USE THEREOF” (SKINMED CO., LTD., priority 2021, published 2025).

Experiments:
acetylcholine receptor [1] = test: SPR, receptor immobilised on chip, peptide at 10 uM
acetylcholine receptor [2] = test: SPR, AchR immobilized on CM5 chip, peptide at 10 µM

Row | Binder | Binding affinity (RU) (acetylcholine receptor [1]) | Binding affinity (RU) (acetylcholine receptor [2])
1 | RGLQK [5mer-446] | – | 53 RU
2 | KNCWKR [6mer-2-915] | 29 RU | –
3 | RQVTR [5mer-121] | – | 73 RU
4 | KQQYR [5mer-444] | – | 65 RU
5 | KWRTK [5mer-430] | – | 80 RU
6 | RAPIRR [6mer-2-912] | 27 RU | –
7 | KRVTR [5mer-439] | – | 65 RU
8 | RGFTK [5mer-443] | – | 80 RU
9 | KLRRR [5mer-131] | – | 72 RU
10 | RWFTK [5mer-146] | – | 52 RU
11 | KTTEKR [6mer-2-916] | 22 RU | –
12 | KWRLR [5mer-140] | – | 69 RU
13 | RQVTK [5mer-440] | – | 57 RU
14 | KDDIKK [6mer-2-914] | 25 RU | –
15 | KGYYK [5mer-447] | – | 76 RU
16 | RYWDRK [6mer-2-901] | 34 RU | –

Row | Binder | Binding affinity (RU) (acetylcholine receptor [1]) | Binding affinity (RU) (acetylcholine receptor [2])
17 | RGLYR [5mer-427] | – | 87 RU
18 | RLFTR [5mer-445] | – | 77 RU
19 | RVLQK [5mer-434] | – | 74 RU
20 | KFKNRR [6mer-2-913] | 25 RU | –
21 | RVVYK [5mer-421] | – | 68 RU
22 | RQFLK [5mer-428] | – | 86 RU
23 | KYCDKK [6mer-2-906] | 40 RU | –
24 | RVRSR [5mer-438] | – | 76 RU
25 | RWQQR [5mer-141] | – | 50 RU
26 | RVRQK [5mer-125] | – | 67 RU
27 | RLQYK [5mer-139] | – | 73 RU
28 | RSYQK [5mer-122] | – | 78 RU
29 | RRYQK [5mer-147] | – | 66 RU
30 | KPDVRK [6mer-2-902] | 26 RU | –
31 | RRQLK [5mer-423] | – | 60 RU
32 | KSQYK [5mer-429] | – | 63 RU

Further lines, results first:

Row | Binding affinity (RU) (acetylcholine receptor [1]) | Binding affinity (RU) (acetylcholine receptor [2]) | Binder
33 | 21 RU | – | KMSGKR [6mer-2-911]
34 | 33 RU | – | KYKKKR [6mer-2-908]
35 | – | 73 RU | KWRCR [5mer-433]
36 | – | 80 RU | RGFYR [5mer-425]
37 | – | 56 RU | RGVCR [5mer-128]
38 | – | 61 RU | KVRLR [5mer-442]
39 | – | 80 RU | RRFRK [5mer-130]
40 | 30 RU | – | KCCFKK [6mer-2-904]
41 | 40 RU | – | KKNPKK [6mer-2-903]
42 | – | 50 RU | RVRLR [5mer-437]
43 | – | 87 RU | KWICK [5mer-422]
44 | – | 84 RU | KLFCR [5mer-420]
45 | – | 75 RU | RRIYK [5mer-136]
46 | – | 63 RU | KSLLK [5mer-129]
47 | 42 RU | – | RCNPRR [6mer-2-909]
48 | – | 53 RU | KWIRR [5mer-123]
49 | – | 52 RU | RQYSR [5mer-142]
50 | – | 62 RU | RSFSK [5mer-145]
51 | – | 64 RU | KGQQR [5mer-143]
52 | – | 74 RU | RQIRK [5mer-448]
53 | – | 58 RU | KRFSK [5mer-144]
54 | – | 53 RU | KLIRK [5mer-441]
55 | 27 RU | – | KAKHKR [6mer-2-919]
56 | – | 61 RU | RQFSK [5mer-134]

Row | Binding affinity (RU) (acetylcholine receptor [1]) | Binding affinity (RU) (acetylcholine receptor [2]) | Binder
57 | – | 81 RU | KVQLK [5mer-431]
58 | – | 77 RU | KGVSK [5mer-137]
59 | – | 64 RU | RRLLR [5mer-135]
60 | 13 RU | – | KKMVKR [6mer-2-899]
61 | 11 RU | – | RFSAKK [6mer-2-900]
62 | – | 60 RU | RVFYK [5mer-436]
63 | – | 61 RU | RGVTK [5mer-126]
64 | 35 RU | – | KNWMRK [6mer-2-918]
65 | – | 68 RU | RQILK [5mer-120]
66 | – | 69 RU | KLRQR [5mer-435]
67 | – | 50 RU | RSQTK [5mer-148]
68 | – | 52 RU | RQVRR [5mer-432]
69 | – | 57 RU | RRVSR [5mer-426]
70 | 25 RU | – | RTMNRR [6mer-2-907]
71 | – | 84 RU | KGQRK [5mer-133]
72 | – | 86 RU | RWVTK [5mer-127]
73 | – | 87 RU | RVYLK [5mer-424]
74 | 21 RU | – | RHEHRR [6mer-2-910]
75 | – | 83 RU | RVRCK [5mer-132]
76 | 26 RU | – | RPKERR [6mer-2-905]
77 | – | 58 RU | KGFSK [5mer-124]
78 | – | 71 RU | RQRCR [5mer-138]
79 | 23 RU | – | RFCWRK [6mer-2-917]
